In patent publication US20170298146A1 (MODIQUEST B V, published 2017) one finds OD data, which are given here for one molecule.

Non-standard residues stand in square brackets, D forms with d. No end group written: not given here. Cit = NC(=O)NCCC[C@H](N)C(=O)O

The target in test [1] is T1, Histone 2A citrulline-containing peptide 9 (human, also: biotin label).
T1 peptide: DNKKT[Cit]IIPRHL
The experiment in a line: peptide ELISA, 2 ug/well. How it is done: (§1) Biotin and citrulline-containing peptides derived from histone 2A were immobilized on NEUTRAVIDIN®-coated 96-well ELISA plates (0.3 μg/well). CFC-1 and CFC-0 were coated at the same concentration and served as positive and negative controls respectively for specific anti-citrulline reactivity and as coating controls. Non-coated wells were used to test for aspecific binding of the antibodies. […] Detection of bound anti-citrulline antibodies was performed by incubating the wells with rabbit-anti-human-HRP (1:2000) for one hour at RT followed by incubation with TMB substrate. The resulting OD (y-axis) is a measure for antibody binding.
(§2) Ninety-six-well ELISA plates were coated with NEUTRAVIDIN® (0.1 μg/well) by overnight incubation at 4° C. Wells were washed five times with PBS-TWEEN®-20 (PBS-T) and blocked by a one-hour incubation with PBS-T+1% Bovine serum albumin (BSA) at room temperature (RT). After five more washes with PBS-T, wells were incubated for one hour at RT with histone-derived citrulline and biotin-containing peptides (0.3 μg/well). […] Wells were washed five times with PBS-T and incubated with rabbit-anti-human-HRP (1:2000) for one hour at RT followed by five washes with PBS-T and three wash steps with PBS. Wells were incubated for five minutes with TMB substrate before stopping the reaction with 2 M H₂SO₄. Optical density was measured by 450 nm and is a measure for the affinity of the antibodies used.
On the technique in general: ELISA stands for enzyme-linked immunosorbent assay.

Test [2] concerns the target T2, Histone 2A citrulline-containing peptide 12 (human, also: biotin label).
T2 peptide: NKLLG[Cit]VTIAQG
The experiment in a line: peptide ELISA, 2 ug/well. How it is done: as §1, §2

For test [3], the target named is T3, CFC-1.
T3 construct: Positive control for anti-citrulline reactivity; also called cfc1 XG
The test can be described thus: peptide ELISA, 2 ug/well. As to the method: as §1, §2

Test [4] concerns the target T4, Histone 2A citrulline-containing peptide 3 (human, also: biotin label).
T4 peptide: KSRSS[Cit]AGLQFP
The experiment in a line: peptide ELISA, 2 ug/well. As to the method:
as §1, §2

In test [5] the target is T5, Histone 2A citrulline-containing peptide 4 (human, also: biotin label).
T5 peptide: QFPVG[Cit]VHRLLR
The experiment in a line: peptide ELISA, 2 ug/well. How it is done:
as §1, §2

Test [6] addresses T6, Histone 2A citrulline-containing peptide 10 (human, also: biotin label).
T6 peptide: TRIIP[Cit]HLQLAI
The test can be described thus: peptide ELISA, 2 ug/well. As to the method: as §1, §2

For test [7], the target named is T7, Histone 2A citrulline-containing peptide 7 (human, also: biotin label).
T7 peptide: GNYSE[Cit]VGAGAP
The experiment in a line: peptide ELISA, 2 ug/well. As to the method: as §1, §2

Test [8] has as its target T8, Histone 2A citrulline-containing peptide 6 (human, also: biotin label).
T8 peptide: VHRLL[Cit]KGNYSE
The test can be described thus: peptide ELISA, 2 ug/well. As to the method:
as §1, §2

Test [9] has as its target T9, Histone 2A citrulline-containing peptide 5 (human, also: biotin label).
T9 peptide: VGRVH[Cit]LLRKGN
The test can be described thus: peptide ELISA, 2 ug/well. How it is done:
as §1, §2

For test [10], the target named is T10, Histone 2A citrulline-containing peptide 11 (human, also: biotin label).
T10 peptide: LQLAI[Cit]NDEELN
The test can be described thus: peptide ELISA, 2 ug/well. As to the method: as §1, §2

For test [11], the target named is T11, Histone 2A citrulline-containing peptide 1 (human, also: biotin label).
T11 construct: also called AAASGXGKQGGK
T11 peptide: AAASG[Cit]GKQGGK
The test can be described thus: peptide ELISA, 2 ug/well. How it is done:
as §1, §2

The target of test [12] is T12, Histone 2A citrulline-containing peptide 8 (human, also: biotin label).
T12 peptide: AGNAA[Cit]DNKKTR
The experiment in a line: peptide ELISA, 2 ug/well. As to the method:
as §1, §2

For a further test, the target named is T13, msFibα XH (mouse, X at position 15 is citrulline; biotin label).
T13 peptide: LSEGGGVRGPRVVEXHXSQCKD
The experiment in a line: peptide ELISA, 0.0023 ug/well. As to the method:
as §1, with “fibrinogen and vimentin” for “histone 2A”
(§3) Biotin-labeled and citrulline-containing fibrinogen and vimentin peptides (Table 5) were also tested for reactivity with the therapeutic antibodies. Peptides were coated on 96-well NEUTRAVIDIN®-ELISA plates.

In the next test the target is T14, huFibα XG (human, X at position 8 is citrulline; biotin label).
T14 peptide: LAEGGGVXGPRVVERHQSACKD
The test can be described thus: peptide ELISA, 0.0023 ug/well. How it is done:
as §1, with “fibrinogen and vimentin” for “histone 2A”
as §3

For test [13], the target named is T3, CFC-1. The experiment in a line: peptide ELISA, 0.0023 ug/well. How it is done: as §1, with “fibrinogen and vimentin” for “histone 2A”
as §3

For the next test, the target named is T15, msFibβ XG (mouse, also: biotin label).
T15 peptide: EPTDSLDA[Cit]GHRPVDRR
The experiment in a line: peptide ELISA, 0.0023 ug/well. How it is done: as §1, with “fibrinogen and vimentin” for “histone 2A”
as §3

The target in another test is T16, msVim XS/XL (mouse, also: biotin label).
T16 construct: also called mouse vimentin peptide
T16 peptide: YVT[Cit]SSAV[Cit]L[Cit]SSVP
The experiment in a line: peptide ELISA, 0.0023 ug/well. As to the method: as §1, with “fibrinogen and vimentin” for “histone 2A”
as §3

For the next test, the target named is T17, msFibα XG (mouse, X at position 8 is citrulline; biotin label).
T17 peptide: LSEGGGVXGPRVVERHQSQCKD
The test can be described thus: peptide ELISA, 0.0023 ug/well. As to the method: as §1, with “fibrinogen and vimentin” for “histone 2A”
as §3

In a further test the target is T18, huFibα XH (human, X at position 15 is citrulline; biotin label).
T18 peptide: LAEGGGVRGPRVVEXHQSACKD
The experiment in a line: peptide ELISA, 0.0023 ug/well. As to the method:
as §1, with “fibrinogen and vimentin” for “histone 2A”
as §3

The target of test [14] is T9, Histone 2A citrulline-containing …. The test can be described thus: peptide ELISA, 0.0023 ug/well. As to the method: as §1, §2
The target of test [15] is T12, Histone 2A citrulline-containing …. The experiment in a line: peptide ELISA, 0.0023 ug/well. As to the method:
as §1, §2

Test [16] has as its target human recombinant histone H4 (human, UniProt P62805 2-103). The experiment in a line: ELISA, 0.000128 ug/well. How it is done: (§4) CFC-1 and CFC-0 were coated at the same concentration and served as positive and negative controls, respectively, for specific anti-citrulline reactivity and as coating controls. Non-coated wells were used to test for aspecific binding of the antibodies. […] Detection of bound anti-citrulline antibodies was performed by incubating the wells with rabbit-anti-human-HRP (1:2000) for one hour at RT followed by incubation with TMB substrate. The resulting OD (y-axis) is a measure for antibody binding. H1=recombinant histone 1; H1/p2=huPAD2 recombinant histone 1; H1/p4=huPAD4 recombinant histone 1 and so forth (x-axis).

In test [17] the target is T19, huPAD2 deiminated human recombinant histone H2A (human).
T19 construct: also called H2A/p2
The test can be described thus: ELISA, 0.000128 ug/well. As to the method:
as §4

B1: RhmAb2.102 (antibody, human IgG1, lambda)
heavy: not shown
light: QSVLTQPPSMSAAPGQKVTISCSGSSSNIGNNYVSWYQQVPGTAPKLLIYDDNKRPSGIPGRFSGSKSATSATLGITGLQAGDEADYYCGSWDDNLSVVLFGGGTKLTVLGQPKAAPSVTLFPPSSEELQANKATLVCLISDFYPGAVTVAWKADSSPVKAGVETTTPSKQSNNKYAASSYLSLTPEQWKSHRSYSCQVTHEGSTVEKTVAPTECS
notes: Human IgG1 lambda; also called Rhm2.102
Take B1: the OD in test [1] turned out to be 0.063 OD; in test [2], 0.067 OD; with CFC-1 [3], 3.21 OD; in test [4] it was 0.286 OD; in test [5] it was 1.3 OD; in test [6], 0.07 OD. Further, the OD came out at 0.059 OD in test [7]; 0.752 OD in test [8]; 0.111 OD in test [9]; 0.067 OD in [10]; 3.05 OD in [11]; 0.06 OD in test [12]. For the same molecule, the OD in the test with msFibα XH worked out at 0.085 OD; in the test with huFibα XG, 0.125 OD; with CFC-1 [13], 0.506 OD; with msFibβ XG it was 0.12 OD; in the test with msVim XS/XL, 0.142 OD; with msFibα XG, 0.125 OD. Besides, the OD with huFibα XH was 0.123 OD; in [14] it was 0.063 OD; in [15] it was 0.06 OD; in test [16], 0.06 OD; in test [17], 0.063 OD.
